Test results as given in article PMC7863765.

Target: T1, untagged full-length human 14-3-3ζ (human), P63104
T1 chain: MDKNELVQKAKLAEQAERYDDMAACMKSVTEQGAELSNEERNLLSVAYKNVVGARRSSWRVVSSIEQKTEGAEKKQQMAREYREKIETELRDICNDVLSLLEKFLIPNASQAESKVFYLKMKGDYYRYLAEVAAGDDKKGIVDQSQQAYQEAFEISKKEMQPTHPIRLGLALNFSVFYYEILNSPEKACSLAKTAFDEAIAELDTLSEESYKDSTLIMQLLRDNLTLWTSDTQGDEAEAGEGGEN
Experiment: SEC
Details: remark: other sources report otherwise

stoichiometry N: 2
B1: untagged full-length human 14-3-3ζ, P63104 1-245 (natural protein)
chain: T1 chain
